Results reported in the nanobody polyreactivity screen of Harvey et al. (2022).

assay: yeast display, Sf9 membrane polyspecificity reagent, FACS + sequencing; frameworks hold sequencing errors
How it was run: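 Sorting gates, low and high (top ~1%), were placed on anti-HA fluorescence to track expression and on streptavidin fluorescence to track reagent binding. A clone's polyreactivity label is taken from the gate it came out of. The reagent was 10% biotinylated, detergent-solubilized Sf9 membrane, applied for 1 hour at 4 °C to galactose-induced yeast display cells.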

Sequence | polyreactivity (PSR sort gate)
QVQLVESGGGLVQAGGSLRLSCAASGFTFLVYAMGWYRQAPGKERELVAAITWSGDSTYYADSVKGRFTISRDNAKNTVYLQMNSLKPEDTAVYYCAAAYRYGTLYYYWGQGTQVTGSS | low polyreactivity
QVQLVESGGGLVQAGGSLRLSCAASGFTFLYNVMGWYRQAPGKERELVAAISQSGTDTYYADSVKGRFTISRDNAKNTVYLQMNSLKPEDTAVYYCATEYYSQPRDDSWGQGTQVTVSS | low polyreactivity
QVQLVESGGGLVQAGGSLRLSCAASGFTFLYYDMGWYRQAPGKERELVAAITSSGTSTYYADSVKGRFTISRDNAKNSVYLQMNSLKPEDTAVYYCAVMYTYAGRHRYGYWGQGTQVTVSS | high polyreactivity
QVQLVESGGGLVQAGGSLRLSCAASGFTFNANARGWYRQAPGKEREVVAVITRSGGRTYYADSVKGRFTISRDNAKNTVYFQMNSLNPEDTAVYYCAKEGPSRVYQGTDCASDSWGHGTQVTVSS | high polyreactivity
QVQLVESGGGLVQAGGSLRLSCAASGFTFNCNAMGWYRQAPGKERELVAAIRSSGGSTYYADSVKGRFTISRDNAKYTVYLQMNSLKPEDTAVYYCAARRSNLYYGGTRYWYYYWGQGTQVTVSS | high polyreactivity
QVQLVESGGGLVQAGGSLRLSCAASGFTFNDYAMGWYRQAPGKERELVAAIDWSGGRTYYADSVKGRFTISRDNAKNTVYLQMNSLKPDDTAVYYCAAVLYSRLYWYRLDYWGQGTQVTVSS | low polyreactivity
QVQLVESGGGLVQAGGSLRLSCAASGFTFNGYAMGWYRQAPGKERELVAAINWSGGRTYYADSVKGRFTISRDNAKNTVYLQMNSLKPEDTAVYYCNAVLYVTNSFRFDYWGQGTQVTVSS | high polyreactivity
QVQLVESGGGLVQAGGSLRLSCAASGFTFNNYAMGWYRQAPGKERELVAAISSGAGTYYADSVKGRFTISRDNAKNTVYLQMNSLNPVDTSVDYCNASLKYQGRTRITYRDDYWGQGTQVTVSS | low polyreactivity
QVQLVESGGGLVQAGGSLRLSCAASGFTFNRNAMGWYRQAPGKERELVAAITKRGGSTFYADSVKGRFTISRDNAKNTVYLQMNSLKPEDTAVYYCAASVATYFPRHYDYWGQGTQVTVSS | high polyreactivity
QVQLVESGGGLVQAGGSLRLSCAASGFTFNRYAMGWYRQAPGKEREFVAAITRRGGNTYYADSVKGRFTISRDNAKNTVYLQMNSLKPEDSAVYYCNAVFGPSSYGAKEYDYWGQGTQVTVSS | high polyreactivity
QVQLVESGGGLVQAGGSLRLSCAASGFTFNRYAMGWYRQAPGKERELVARITRGGSTKYADSVKGRFTISRDNAKNTVYLEMNSLKPEDTAVYYCAADYGGFLVYDYWGQGTQVTVSS | high polyreactivity
QVQLVESGGGLVQAGGSLRLSCAASGFTFNSYAMGWYRQAPGKERELVAAISWSGGSTYYADSVKGRFTISRDNAKNTVYLQMNSLKPEDTAVYYCNRDGLSRPYYYWGQGTQVTLSS | high polyreactivity
QVQLVESGGGLVQAGGSLRLSCAASGFTFNSYVMGWSRQAPGKERELVAAITRSGDRTYYADSVKGRFTISRDNAKNTVYLQMNSLKPEDTAVYYCAATWSKNYYGWYYYWGQGTQVTVSS | high polyreactivity
QVQLVESGGGLVQAGGSLRLSCAASGFTFNYAMGWYTQAPGKERELVAAISSAGTTYYADSVKGRFTISRDNAKNTVYLQMNSLKPEDTAVYYCAALARPKQDRYRYYYWGQGTQVTVSS | high polyreactivity
QVQLVESGGGLVQAGGSLRLSCAASGFTFNYNAMGWYRQAPRKERELVAAISRSGGRTYYADSVKGRFTISRDKAKNTVYLQMNSLKPADTAVYYCAADSRTNGYDYWGQGTQVTVSS | high polyreactivity
QVQLVESGGGLVQAGGSLRLSCAASGFTFNYSAKGWYRQAPGKEREFVAAISRGGGRTYYADSVKGRFTISRDNANNTVYLQMNSLKPEATAVYSCAAQSVPYAYPLASYDYWGQGTQVTVSS | high polyreactivity
QVQLVESGGGLVQAGGSLRLSCAASGFTFNYYAMGWSRQAPGKERELVAAITWDGGTTYYADSVKGRFTISRDNAKNTVYLQMNSLKPEDSAVYYCAADYAWVSIYDNVPSAPGYDYWGQGTQVTVSS | low polyreactivity
